Values joined by “and” are separate entries in the source; they are usually repeats but may differ in a detail not shown here. Equal entries are not always repeated.
Columns and labels:
[1] = target: T1, Human CD127 (IL-7 receptor alpha chain) expressed on cells (human, UniProt P16871 21-459); assay: cell-based or functional assay
T1 chain: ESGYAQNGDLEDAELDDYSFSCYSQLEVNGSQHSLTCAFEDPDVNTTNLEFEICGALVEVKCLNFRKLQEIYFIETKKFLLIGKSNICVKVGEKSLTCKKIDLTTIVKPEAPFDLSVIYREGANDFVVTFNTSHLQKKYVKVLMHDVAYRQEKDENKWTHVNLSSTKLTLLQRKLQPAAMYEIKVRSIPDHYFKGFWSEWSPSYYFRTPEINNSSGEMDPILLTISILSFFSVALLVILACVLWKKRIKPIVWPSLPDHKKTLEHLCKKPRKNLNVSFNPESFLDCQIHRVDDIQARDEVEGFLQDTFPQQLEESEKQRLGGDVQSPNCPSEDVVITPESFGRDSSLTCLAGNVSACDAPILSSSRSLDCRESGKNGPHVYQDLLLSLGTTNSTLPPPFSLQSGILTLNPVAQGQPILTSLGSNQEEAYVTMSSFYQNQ

[2] = target: T2, Recombinant CD127 Fc Chimera (10975-H03H, Sino Biological) (human, UniProt P16871 21-239); assay: ELISA, human CD127Fc coated, revealed with anti-human kappa antibody; printed as ED 50
T2 construct: Bought protein; also called hCD127-Ig; human CD127Fc; not shown: constant fragment of an immunoglobulin
T2 chain: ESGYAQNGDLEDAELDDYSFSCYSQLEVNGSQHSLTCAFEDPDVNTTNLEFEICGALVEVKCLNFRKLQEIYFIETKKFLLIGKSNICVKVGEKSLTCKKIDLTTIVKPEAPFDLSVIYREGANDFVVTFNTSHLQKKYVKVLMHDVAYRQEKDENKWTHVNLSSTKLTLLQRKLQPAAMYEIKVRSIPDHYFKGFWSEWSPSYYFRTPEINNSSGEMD

[3] = target: T2, Recombinant CD127 Fc Chimera …; assay: ELISA, coated human CD127Fc, revealed with an anti-human kappa antibody
[4] = target: T3, Recombinant hCD127 (Sino Biologicals, reference 10975-H08H) (human, UniProt P16871 21-239); assay: ELISA on immobilised recombinant hCD127; antibody stored 7 days at 37 °C
T3 construct: Bought protein; also called recombinant hCD127 antigen; rCD127
T3 chain: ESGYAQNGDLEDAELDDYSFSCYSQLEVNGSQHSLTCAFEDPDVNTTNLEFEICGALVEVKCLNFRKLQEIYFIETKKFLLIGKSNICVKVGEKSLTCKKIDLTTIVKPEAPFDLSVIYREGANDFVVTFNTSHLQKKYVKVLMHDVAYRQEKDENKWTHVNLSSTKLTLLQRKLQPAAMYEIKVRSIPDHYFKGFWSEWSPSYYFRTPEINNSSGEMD
Procedure: (§1) FIG. 15. Stability assay of humanized versus Rat anti-CD127 antibodies. Antibody concentrations was measured by ELISA after 7 days at 37° C. (Rat N13B2 wt (+) or humanized N13B2 h3 (square)) and at −80° C. (Rat N13B2 wt (X) or humanized N13B2 h3 (triangle)) and after four frost/defrost events (diamonds).
(§2) Humanized and chimeric purified N13B2-G1 were incubated at 37° C. or at −80° C. for 7 days. Two assays were used to measure stability of antibody: binding anti-CD127 by ELISA assay, and aggregate formation by gel filtration. For activity ELISA assay, recombinant hCD127 (Sino Biologicals, Beijing, China; reference 10975-H08H) was immobilized on plastic at lpg/ml and dilutions of supernatant were added to measure binding. […] For analysis of aggregate formation, sample was analysed on gel filtration chromatography column (Superdex 200, 10/300GL, GeHealthcare) to separate and evaluate aggregate and monomer from samples.

[5] = target: T3, Recombinant hCD127 (Sino Biologicals, …); assay: ELISA on immobilised recombinant hCD127; antibody stored 7 days at -80 °C
Procedure: as §1, §2

[6] = target: T3, Recombinant hCD127 (Sino Biologicals, …); assay: ELISA on coated recombinant hCD127, anti-human kappa detection; antibody stored 7 days at 37 °C; printed as ED 50
Procedure: as §1, §2

[7] = target: T3, Recombinant hCD127 (Sino Biologicals, …); assay: ELISA on coated recombinant hCD127, anti-human kappa detection; antibody stored 7 days at -80 °C; printed as ED 50
Procedure: as §1, §2

[8] = target: T1, Human CD127 (IL-7 receptor alpha chain) …; assay: cell-based or functional assay
[9] = target: T3, Recombinant hCD127 (Sino Biologicals, …); assay: ELISA on immobilised recombinant hCD127
Procedure: (§3) The binding activity of the anti hCD127 antibody was assessed by ELISA (Enzyme-linked immunosorbent assay). For the ELISA assay, recombinant hCD127 (Sino Biologicals, Beijing, China; reference 10975-H08H) was immobilized on plastic at 1 μg/ml and purified antibody were added to measure binding.

[10] = target: T1, Human CD127 (IL-7 receptor alpha chain) …; assay: cell-based or functional assay
[11] = target: T2, Recombinant CD127 Fc Chimera …; assay: SPR (Biacore 3000), CD127Fc immobilised on CM5 chip, antibody injected, Bivalent analyte model
Procedure: FIG. 3. (A) Binding studies of rat N13B2 anti-CD127 antibody. N13B2 antibody or MD707-1 were injected on a CD127 immobilized antigen at different concentration. Resp. diff: Response difference. Time: time in sec (total duration: 20 min). Blk: blank (no antibody). The association and dissociation curves were analyzed with model “Bivalent analyte” on BIAeval 4 software.
(§4) A CM5 chip (GE healthcare) was activated by injection of NHS/EDC mix for 7 min. […] The free reactive residues were inactivated by the injection of 1M ethanolamine pH8.5. […] The injection rate was set at 40 μL/min, the association was measured for 3 min and dissociation for 10 min. Between each cycle of the analysis, the chip was regenerated by injection of a solution of 5M MgCl2 for 60 s.

[12] = target: T2, Recombinant CD127 Fc Chimera …; assay: SPR (Biacore 3000), CD127Fc immobilised on CM5 chip, antibody injected, Bivalent analyte model; separate experiment
Procedure: as §4

[13] = target: T3, Recombinant hCD127 (Sino Biologicals, …); assay: ELISA, recombinant hCD127 coated on plastic at 1 µg/ml, antibody titrated; printed as ED 50
Procedure: FIG. 4. The Anti CD127 activity of the new antibody N13B2 was measured by ELISA assay using a recombinant hCD127 antigen. OD 450 nm: optical density at 450 nm. A. The CD127 binding activity of the N13B2 (full circle) was compared to the previous antibody generation (MD707-1 (empty diamond), 3 (empty triangle) and 6 (full square)). N13B2 appears as the most efficient binder in the assay. B. The CD127 activity between different N13B2 formats (rat, IgG1 (circle) or IgG4 (square)) was compared. No significant difference in binding activity was observed.
as §3

B1: N13B2-h2 (humanized N13B2) (antibody, V domains shown)
VH: QVQLVESGGGLVKPGGSLRLSCAVSGFTLSDYYMAWIRQAPGKGLEWVSTISASGLRTYYPDSVKGRFTISRDNAKNSLYLQMNSLRAEDTAVYYCARPMSAHYGFNYFDYWGQGTLVTVSS
VL: EIVMTQSPATLSVSPGERATLSCRTSEDIYNGLAWYQQKPGQAPRLLIYSANSLHIGIPARFSGSGSGTEFTLTISSLQSEDFAVYYCQQYYDYPLAFGGGTKVEIK
notes: Variable regions only
IC 50 of inhibition of IL7 induced P-STAT5 on T lymphocytes (0.1 ng/ml rhIL-7) [1]: 18.7 ng/mL | EC50 [2]: 0.6 ng/mL

B2: N13B2-h1 (humanized N13B2) (antibody, V domains shown)
VH: QVQLVESGGGLVKPGGSLRLSCAVSGFTLSDYYMAWVRQAPGKGLEWVATISASGLRTYYPDSVKGRFTISRDDAKNSLYLQMNSLRAEDTAVYYCARPMSAHYGFNYFDYWGQGTLVTVSS
VL: EIVMTQSPATLSVSPGERATLSCRTSEDIYNGLAWYQQKPGQAPRLLVYSANSLHIGIPARFSGSGSGTEYTLTISSLQSEDFAVYFCQQYYDYPLAFGGGTKVEIK
IC 50 of inhibition of IL7 induced P-STAT5 on T lymphocytes (0.1 ng/ml rhIL-7) [1]: 63.8 ng/mL | EC50 (read off the curve) [3]: ~2 ng/mL | EC50 [2]: 2.4 ng/mL

B3: N13B2 wt (antibody, V domains shown)
VH: AVQLVESGGGLVQPGGSLKLSCAVSGFTLSDYYMAWVRQAPKKGLEWVATISASGLRTYYPDSVKGRFTISRDDAKRSLFLQMTSLKSEDTATYYCARPMSAHYGFNYFDYWGQGVMVTVSS
VL: DIQMTQSPASLSASLGETVTIECRTSEDIYNGLAWYQQKPGKSPQLLVYSANSLHIGVPSRFSGSGSGTQYSLKINSLQFEDVASYFCQQYYDYPLAFGSGTKLEIKR
notes: also called Rat N13B2 wt
IC 50 of inhibition of IL7 induced P-STAT5 on T lymphocytes (0.1 ng/ml rhIL-7) [1]: 50.2 ng/mL | EC50 (read off the curve) [4]: ~4 ng/mL | EC50 (read off the curve) [5]: ~3 ng/mL | EC50 (read off the curve) [3]: ~3 ng/mL | EC50 [6]: 3.5 ng/mL | EC50 [7]: 3.6 ng/mL | EC50 [2]: 3 ng/mL

B4: N13B2 (rat anti-human CD127 monoclonal antibody) (antibody, V domains shown)
VH: AVQLVESGGGLVQPGGSLKLSCAVSGFTLSDYYMAWVRQAPKKGLEWVATISASGLRTYYPDSVKGRFTISRDDAKRSLFLQMTSLKSEDTATYYCARPMSAHYGFNYFDYWGQGVMVTVSS
VL: DIQMTQSPASLSASLGETVTIECRTSEDIYNGLAWYQQKPGKSPQLLVYSANSLHIGVPSRFSGSGSGTQYSLKINSLQFEDVASYFCQQYYDYPLAFGSGTKLEIKR
notes: Rat hybridoma antibody; It was detected with anti-rat kappa; also called rat N13B2; N13B2 mAb
inhibition of STAT5 phosphorylation in human PBMC [8]: > 50 % inhibition at 50 ng/ml and > 80 % inhibition at 100 ng/ml (0.1 ng/ml IL-7) and > 90 % inhibition at 100 ng/ml (5 ng/ml IL-7) | EC50 (read off the curve) [9]: ~60 ng/mL | IC50 on P-STAT5 induced by 100 pg/ml of rhIL7 [10]: 0.043 ng/mL | Ka [11]: 1.26e+10 M⁻¹ | Kd [11]: 0.0796 nM | koff [11]: 1.6e-05 s⁻¹ | kon [11]: 201000 M⁻¹ s⁻¹ | Ka [12]: 2.03e+10 M⁻¹ | Kd [12]: 0.0493 nM | koff [12]: 4.75e-06 s⁻¹ | kon [12]: 96300 M⁻¹ s⁻¹ | EC50 [13]: 65.6 ng/mL

B5: N13B2-G4 (chimeric N13B2, human IgG4 Fc S228P, human CL kappa) (antibody)
heavy: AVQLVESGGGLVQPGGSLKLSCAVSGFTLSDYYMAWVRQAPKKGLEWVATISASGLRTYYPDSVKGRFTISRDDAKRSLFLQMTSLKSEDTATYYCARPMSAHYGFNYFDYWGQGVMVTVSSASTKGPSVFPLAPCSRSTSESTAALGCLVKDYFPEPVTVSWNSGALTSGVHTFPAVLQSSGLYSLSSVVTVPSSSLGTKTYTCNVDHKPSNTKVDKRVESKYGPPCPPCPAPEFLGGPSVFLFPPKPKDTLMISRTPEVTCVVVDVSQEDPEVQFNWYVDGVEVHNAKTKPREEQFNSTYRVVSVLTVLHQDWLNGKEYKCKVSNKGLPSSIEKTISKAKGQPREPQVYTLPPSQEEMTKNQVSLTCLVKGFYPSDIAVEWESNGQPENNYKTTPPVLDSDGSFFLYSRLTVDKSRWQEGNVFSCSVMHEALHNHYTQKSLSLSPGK
light: DIQMTQSPASLSASLGETVTIECRTSEDIYNGLAWYQQKPGKSPQLLVYSANSLHIGVPSRFSGSGSGTQYSLKINSLQFEDVASYFCQQYYDYPLAFGSGTKLEIKRTVAAPSVFIFPPSDEQLKSGTASVVCLLNNFYPREAKVQWKVDNALQSGNSQESVTEQDSKDSTYSLSSTLTLSKADYEKHKVYACEVTHQGLSSPVTKSFNRGEC
notes: also called cN13B2-G4; N13B2-G4m
inhibition of STAT5 phosphorylation in human PBMC [8]: > 50 % inhibition at 50 ng/ml and > 80 % inhibition at 100 ng/ml (0.1 ng/ml IL-7) and > 90 % inhibition at 100 ng/ml (5 ng/ml IL-7) | IC50 on P-STAT5 induced by 100 pg/ml of rhIL7 [10]: 0.037 ng/mL | Ka [12]: 5.89e+09 M⁻¹ | Kd [12]: 0.17 nM | koff [12]: 3.41e-06 s⁻¹ | kon [12]: 20100 M⁻¹ s⁻¹ | EC50 [13]: 12.6 ng/mL

B6: N13B2-G1 (chimeric N13B2, human IgG1 Fc E333A, human CL kappa) (antibody)
heavy: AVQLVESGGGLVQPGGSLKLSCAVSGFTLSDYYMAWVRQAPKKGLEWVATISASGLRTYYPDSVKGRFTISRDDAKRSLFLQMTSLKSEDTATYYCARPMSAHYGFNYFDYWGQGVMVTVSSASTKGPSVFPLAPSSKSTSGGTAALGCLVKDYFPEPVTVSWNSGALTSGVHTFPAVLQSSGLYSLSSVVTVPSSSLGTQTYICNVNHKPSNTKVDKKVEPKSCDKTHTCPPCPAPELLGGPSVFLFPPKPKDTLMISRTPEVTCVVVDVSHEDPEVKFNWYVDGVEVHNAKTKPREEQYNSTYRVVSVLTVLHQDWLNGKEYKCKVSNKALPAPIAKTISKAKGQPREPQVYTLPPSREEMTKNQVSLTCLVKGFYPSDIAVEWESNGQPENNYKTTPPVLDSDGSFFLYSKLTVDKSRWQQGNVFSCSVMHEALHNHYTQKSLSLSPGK
light: DIQMTQSPASLSASLGETVTIECRTSEDIYNGLAWYQQKPGKSPQLLVYSANSLHIGVPSRFSGSGSGTQYSLKINSLQFEDVASYFCQQYYDYPLAFGSGTKLEIKRTVAAPSVFIFPPSDEQLKSGTASVVCLLNNFYPREAKVQWKVDNALQSGNSQESVTEQDSKDSTYSLSSTLTLSKADYEKHKVYACEVTHQGLSSPVTKSFNRGEC
notes: also called cN13B2-G1; N13B2-G1m
inhibition of STAT5 phosphorylation in human PBMC [8]: > 50 % inhibition at 50 ng/ml and > 80 % inhibition at 100 ng/ml (0.1 ng/ml IL-7) and > 90 % inhibition at 100 ng/ml (5 ng/ml IL-7) | IC50 on P-STAT5 induced by 100 pg/ml of rhIL7 [10]: 0.028 ng/mL | Ka [12]: 2.65e+09 M⁻¹ | Kd [12]: 0.377 nM | koff [12]: 5.62e-05 s⁻¹ | kon [12]: 149000 M⁻¹ s⁻¹ | EC50 [13]: 12 ng/mL

B7: MD707-3 (rat anti-human CD127 antibody, previous generation) (antibody, V domains shown)
VH: AVHLVESGGGLVQPKESLKISCAASGFTFSNAAMYWVRQAPGKGLEWVARIRTKANNYATYYAESVKGRFTISRDDSKSMVYLQMDNVKTDDTAMYYCIVVVLTTTRDYFDYWGQGVMVTVSS
VL: DIVLTQAPLSVSVTPGESASISCRSSQSLLTVKGITSLYWFLQKPGKSPQLLIYRMSNLASGVPDRFRGSGSETDFTLKISKVETEDVGVYYCAQFLEYPHTFGAGTKLELKR
IC50 on P-STAT5 induced by 100 pg/ml of rhIL7 [10]: 1.09 ng/mL | EC50 [13]: 293 ng/mL

— patent publication US20170129959A1 (OSE IMMUNOTHERAPEUTICS, published 2017)
